Measured values taken from the supplement of paper PMC10567573.

B1: POMT2 (parent)
chain: YHEAPMTRKHYQVTGYGINGTGDS

Variants of: B1
Assay: protein stability index of a GFP-peptide fusion (GPS, HEK-293T) (PSI 1-6); higher = more stable
Settings: c terminus: a fixed tail appended
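Further: lentivirally expressed fusions sorted by FACS into six bins by GFP to DsRed ratio, PSI derived from sequencing read proportions per bin multiplied by bin number.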

In order of falling protein stability index:
1. YHEAPMTRKHYQETGYGINGTGDS [V13E]  3.61
2. YHEAPMTRKHYQDTGYGINGTGDS [V13D]  3.46
3. YHEAPMTRDHYQVTGYGINGTGDS [K9D]  3.42
4. YHEAPMTRKHYQSTGYGINGTGDS [V13S]  3.32
5. YHEAPMTREHYQVTGYGINGTGDS [K9E]  3.29
6. YHEAPMTRKHYQRTGYGINGTGDS [V13R]  3.24
7. YHEAPMTDKHYQVTGYGINGTGDS [R8D]  3.19
8. YHEAPMTLKHYQVTGYGINGTGDS [R8L]  3.16
9. YHEAPMTRKHYQQTGYGINGTGDS [V13Q]  3.11
10. YHEYPMTRKHYQVTGYGINGTGDS [A4Y]  3.11
11. YHEAPMTRKHYDVTGYGINGTGDS [Q12D]  3.05
12. YHEAPMTHKHYQVTGYGINGTGDS [R8H]  3.02
13. YHEAPMTEKHYQVTGYGINGTGDS [R8E]  3
14. YHEAPMTRKHYQYTGYGINGTGDS [V13Y]  2.97
15. YHEVPMTRKHYQVTGYGINGTGDS [A4V]  2.96
16. YHEEPMTRKHYQVTGYGINGTGDS [A4E]  2.93
17. YHEAPMTRQHYQVTGYGINGTGDS [K9Q]  2.9
18. YHEAPMTQKHYQVTGYGINGTGDS [R8Q]  2.86
19. YHEAPMTRKHYNVTGYGINGTGDS [Q12N]  2.85
20. YHEAPMTRKHYQHTGYGINGTGDS [V13H]  2.84
21. YHEAPMTNKHYQVTGYGINGTGDS [R8N]  2.82
22. YHEAPMTRKHYQATGYGINGTGDS [V13A]  2.76
23. YHEAPMTRPHYQVTGYGINGTGDS [K9P]  2.76
24. YHEAPMTGKHYQVTGYGINGTGDS [R8G]  2.74
25. YHEAPMTRTHYQVTGYGINGTGDS [K9T]  2.7
26. YHEAPMTRKHYQLTGYGINGTGDS [V13L]  2.69
27. YHEAPMTRKHYQKTGYGINGTGDS [V13K]  2.68
28. YHEQPMTRKHYQVTGYGINGTGDS [A4Q]  2.68
29. YHEFPMTRKHYQVTGYGINGTGDS [A4F]  2.68
30. YHEAPMTMKHYQVTGYGINGTGDS [R8M]  2.68
31. YHEAPMTRKHYQNTGYGINGTGDS [V13N]  2.65
32. YHEAPMTAKHYQVTGYGINGTGDS [R8A]  2.61
33. YHEAPMTRKHYQTTGYGINGTGDS [V13T]  2.6
34. YHEAPMTSKHYQVTGYGINGTGDS [R8S]  2.6
35. YHEAPMTRKHYQMTGYGINGTGDS [V13M]  2.59
36. YHEAPMTVKHYQVTGYGINGTGDS [R8V]  2.55
37. YHEAPMTRKHYQGTGYGINGTGDS [V13G]  2.52
38. YHEAPMTRGHYQVTGYGINGTGDS [K9G]  2.51
39. YHEAPMTRNHYQVTGYGINGTGDS [K9N]  2.47
40. YHEAPMTRKHYYVTGYGINGTGDS [Q12Y]  2.46
41. YHERPMTRKHYQVTGYGINGTGDS [A4R]  2.45
42. YHEAPMTKKHYQVTGYGINGTGDS [R8K]  2.44
43. YHEAPMTTKHYQVTGYGINGTGDS [R8T]  2.44
44. YHEIPMTRKHYQVTGYGINGTGDS [A4I]  2.42
45. YHEAPMTRCHYQVTGYGINGTGDS [K9C]  2.42
46. YHEAPMTRKHYEVTGYGINGTGDS [Q12E]  2.41
47. YHEGPMTRKHYQVTGYGINGTGDS [A4G]  2.37
48. YHEAPMTRKHYPVTGYGINGTGDS [Q12P]  2.37
49. YHEAPMTRKHYVVTGYGINGTGDS [Q12V]  2.36
50. YHEAPMTRVHYQVTGYGINGTGDS [K9V]  2.35
51. YHEAPMTRKHYQPTGYGINGTGDS [V13P]  2.34
52. YHEAPMTRKHYMVTGYGINGTGDS [Q12M]  2.34
53. YHEAPMTRAHYQVTGYGINGTGDS [K9A]  2.31
54. YHEAPMTPKHYQVTGYGINGTGDS [R8P]  2.31
55. YHEAPMTRMHYQVTGYGINGTGDS [K9M]  2.3
56. YHEAPMTRKHYLVTGYGINGTGDS [Q12L]  2.29
57. YHEAPMTRSHYQVTGYGINGTGDS [K9S]  2.29
58. YHEAPMTRKHYFVTGYGINGTGDS [Q12F]  2.28
59. YHEAPMTRKHYKVTGYGINGTGDS [Q12K]  2.24
60. YHEAPMTRKHYQWTGYGINGTGDS [V13W]  2.23
61. YHEAPMTRKHYSVTGYGINGTGDS [Q12S]  2.22
62. YHEAPMTRKHYQITGYGINGTGDS [V13I]  2.21
63. YHETPMTRKHYQVTGYGINGTGDS [A4T]  2.21
64. YHEWPMTRKHYQVTGYGINGTGDS [A4W]  2.2
65. YHEKPMTRKHYQVTGYGINGTGDS [A4K]  2.18
66. YHEAPMTRKHYTVTGYGINGTGDS [Q12T]  2.16
67. YHEAPMTRKHYQCTGYGINGTGDS [V13C]  2.14
68. YHEAPMTRFHYQVTGYGINGTGDS [K9F]  2.13
69. YHEAPMTRIHYQVTGYGINGTGDS [K9I]  2.12
70. YHEAPMTFKHYQVTGYGINGTGDS [R8F]  2.09
71. YHEAPMTYKHYQVTGYGINGTGDS [R8Y]  2.09
72. YHEAPMTRKHYQFTGYGINGTGDS [V13F]  2.08
73. YHEAPMTRKHYCVTGYGINGTGDS [Q12C]  2.08
74. YHEAPMTRKHYGVTGYGINGTGDS [Q12G]  2.08
75. YHEAPMTRKHYHVTGYGINGTGDS [Q12H]  2.07
76. YHEAPMTRWHYQVTGYGINGTGDS [K9W]  2.07
77. YHEAPMVRKHYQVTGYGINGTGDS [T7V]  2.07
78. YHEHPMTRKHYQVTGYGINGTGDS [A4H]  2.04
79. YHEAPMTRKHYIVTGYGINGTGDS [Q12I]  1.97
80. YHEAPMTRLHYQVTGYGINGTGDS [K9L]  1.97
81. YHEPPMTRKHYQVTGYGINGTGDS [A4P]  1.96
82. YHEAPMTRKHYAVTGYGINGTGDS [Q12A]  1.96
83. YHEAPMTCKHYQVTGYGINGTGDS [R8C]  1.95
84. YHEAPMTIKHYQVTGYGINGTGDS [R8I]  1.94
85. YHESPMTRKHYQVTGYGINGTGDS [A4S]  1.92
86. YHELPMTRKHYQVTGYGINGTGDS [A4L]  1.91
87. YHEAPMTRKHYWVTGYGINGTGDS [Q12W]  1.91
88. YHEAPMTRKHYRVTGYGINGTGDS [Q12R]  1.88
89. YHEAPMTRRHYQVTGYGINGTGDS [K9R]  1.87
90. YHEAPMTRHHYQVTGYGINGTGDS [K9H]  1.84
91. YHEAPMTRYHYQVTGYGINGTGDS [K9Y]  1.76
92. YHENPMTRKHYQVTGYGINGTGDS [A4N]  1.69
93. YHEAPMTWKHYQVTGYGINGTGDS [R8W]  1.62
94. YHEMPMTRKHYQVTGYGINGTGDS [A4M]  1.49
